Here are results for 1 molecule from patent US20230270877A1 (Seagen, published 2023).

The test deals with T1, human FcγRIIIa (human, UniProt P08637 17-254).
T1 construct: whole, on cells
The test is described as follows: flow cytometry on CHO cells transfected with human FcγRIIIa, PE anti-human IgG Fc secondary, GEO mean fluorescence. (A flow cytometer gives signals particle by particle.)

T1 sequence (P08637 17-254): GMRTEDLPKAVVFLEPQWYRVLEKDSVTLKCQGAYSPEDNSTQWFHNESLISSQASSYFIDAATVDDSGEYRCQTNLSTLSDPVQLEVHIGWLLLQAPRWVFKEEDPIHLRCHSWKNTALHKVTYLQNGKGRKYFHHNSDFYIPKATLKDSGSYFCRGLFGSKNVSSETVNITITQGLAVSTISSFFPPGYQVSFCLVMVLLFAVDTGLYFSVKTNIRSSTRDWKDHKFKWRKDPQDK

B1: SEA-CD40 (nonfucosylated hS2C6) (antibody, human IgG1, kappa)
heavy: not shown
light: DIQMTQSPSSLSASVGDRVTITCRSSQSLVHSNGNTFLHWYQQKPGKAPKLLIYTVSNRFSGVPSRFSGSGSGTDFTLTISSLQPEDFATYFCSQTTHVPWTFGQGTKVEIKRTVAAPSVFIFPPSDEQLKSGTASVVCLLNNFYPREAKVQWKVDNALQSGNSQESVTEQDSKDSTYSLSSTLTLSKADYEKHKVYACEVTHQGLSSPVTKSFNRGEC
notes: also called nonfucosylated humanized S2C6
B1: the “EC50 (read off the curve)” value was approximately 1 µg/mL.

Broadly, the EC50 (read off the curve) is the concentration that produces a half-maximal response. High values mean lower potency in that assay, low ones higher potency in that assay.
